Measured values published in the supplement of paper PMC10567573.

B1: P2RY14 (parent)
chain: KKIFKSHLKSSRNSTSVKKKSSRN

Variants of: B1
Assay: protein stability index of a GFP-peptide fusion (GPS, HEK-293T) (PSI 1-6); higher = more stable
Settings: c terminus: a fixed tail appended
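Also: lentivirally expressed fusions sorted by FACS into six bins by GFP to DsRed ratio, PSI derived from sequencing read proportions per bin multiplied by bin number.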

Protein stability index, by site and new letter:
R12: C 3.6 | L 4.11 | A 4.17 | Q 4.16 | S 3.94 | F 3.83 | P 4.15 | G 3.87 | E 4.08 | M 4.03 | W 3.74 | H 3.93 | K 4.03 | D 4.43 | V 4.45 | Y 3.39 | I 3.8 | N 4.17 | T 4.37
S16: Q 4.48 | I 3.84 | L 4.14 | D 4.08 | H 4.45 | E 4.13 | N 4.26 | C 3.38 | K 4.07 | F 3.57 | G 4.1 | A 4.16 | W 3.69 | M 4.35 | T 4.22 | Y 4.28 | V 3.82 | P 4.26 | R 4.22
L8: Q 3.49 | M 4.11 | R 4.14 | C 4.39 | D 4.58 | N 4.31 | W 3.95 | F 4.04 | S 5.01 | T 4.3 | P 4.33 | G 4.49 | A 4.56 | E 4.43 | K 4.29 | I 4.16 | V 4.14 | Y 3.59 | H 4.05
K5: P 4.18 | Y 3.48 | I 3.55 | W 3.45 | Q 4.27 | M 3.95 | V 3.93 | H 4.33 | G 4.44 | N 4.33 | A 4.33 | R 3.67 | F 4.01 | S 4.2 | E 3.89 | L 3.76 | T 4.06 | C 4.05 | D 4.16
S14: D 4.14 | H 4.35 | F 3.84 | W 3.44 | Q 3.69 | R 4.36 | M 3.98 | P 4.43 | E 4.35 | G 4.22 | C 4.31 | K 4.07 | Y 4.1 | N 4.44 | V 3.84 | T 4.33 | L 3.88 | A 3.5 | I 4.14
F4: D 4.6 | M 4.28 | I 4.3 | R 4.48 | E 4.45 | G 4.56 | H 4.07 | W 3.96 | L 4 | P 4.58 | A 4.49 | Q 4.71 | C 4.27 | K 4.47 | T 4 | S 4.72 | V 4.39 | Y 3.67 | N 4.49
K1: C 3.51 | R 3.42 | L 3.18 | T 4 | S 4.26 | Q 4.25 | E 3.97 | M 3.43 | D 4.5 | G 4.51 | P 4.22 | Y 3.58 | H 4.63 | I 2.88 | N 4.4 | V 3.5 | W 2.7 | A 4.12 | F 3.8
V17: T 4.41 | A 4.29 | G 3.73 | D 4.25 | C 4.17 | N 4.21 | L 4.02 | R 4.49 | H 4.1 | Q 4.06 | P 4.09 | M 4.12 | E 3.99 | F 3.97 | I 3.59 | K 4.02 | S 4.03
K2: S 4.37 | P 3.98 | H 4.01 | M 3.53 | G 4.12 | C 3.88 | E 4.29 | W 3.12 | A 3.91 | F 3.63 | L 3.2 | I 3.35 | Q 4.04 | N 4.13 | D 4.66 | V 3.73 | Y 3.67
